Results as given in patent US20170275376A1 (Chugai, published 2017).

How the values were obtained:
anti-FX-arm of ACE910 = target: T1, anti-FX-arm of ACE910; assay: ELISA, hybridoma culture supernatant
T1 construct: This is inferred from the parallel order 'anti-FIXa/FX' and 'Q499-z121/J327-z119' and from the AQ/AJ antibody names; also called anti-FX side; anti-FX-F(ab')2
Experimental: (§1) Mice and rats were immunized with anti-FIXa-F(ab′)2 or anti-FX-F(ab′)2. Cells obtained from the spleen removed from the mice or rats or from rat lymph nodes were subjected to cell fusion with mouse myeloma cells by following general methods to produce the hybridomas. The culture supernatants of the hybridomas were evaluated by ELISA which detects the binding of ACE910 to the anti-FIXa-arm or the anti-FX-arm, and ultimately, mouse antibodies, AQ8 and AQ1, and rat antibody, AQ512, which bind only to the anti-FIXa-arm but not to the anti-FX-arm of ACE910, and rat antibodies, AJ540, AJ114, AJ521, AJ522, and AJ541, which bind only to the anti-FX-arm but not to the anti-FIXa-arm of ACE910 were selected. In addition, the nucleotide sequences of the variable regions of the AQ8 antibody or the AJ540 antibody were analyzed. The nucleotide sequences of the variable regions of AQ8 and AJ540, and amino acid sequences predicted therefrom were analyzed using GENETYX Ver.9 (GENETYX CORPORATION).

anti-FIXa-arm of ACE910 = target: T2, anti-FIXa-arm of ACE910; assay: ELISA, hybridoma culture supernatant
T2 construct: This is inferred from the parallel order 'anti-FIXa/FX' and 'Q499-z121/J327-z119' and from the AQ/AJ antibody names; also called anti-FIXa side; anti-FIXa-F(ab')2
Experimental: as §1

T2 sequence (VH, as listed by the source, chain 1 of 2): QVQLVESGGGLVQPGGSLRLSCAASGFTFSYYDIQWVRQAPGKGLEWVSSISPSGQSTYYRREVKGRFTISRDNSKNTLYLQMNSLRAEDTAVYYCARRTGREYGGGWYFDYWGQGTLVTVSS
T2 sequence (VL, as listed by the source, chain 2 of 2): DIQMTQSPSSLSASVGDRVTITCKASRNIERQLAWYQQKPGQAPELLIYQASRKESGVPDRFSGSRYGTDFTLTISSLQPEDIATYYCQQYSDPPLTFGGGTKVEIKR
T1 sequence (VH, as listed by the source, chain 1 of 2): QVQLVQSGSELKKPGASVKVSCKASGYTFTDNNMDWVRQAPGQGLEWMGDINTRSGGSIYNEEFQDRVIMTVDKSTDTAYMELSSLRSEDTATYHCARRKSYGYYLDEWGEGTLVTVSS
T1 sequence (VL, as listed by the source, chain 2 of 2): as the sequence (VL, as listed by the source, chain 2 of 2) above

Binder | binding result (anti-FX-arm of ACE910) | binding result (anti-FIXa-arm of ACE910)
mouse antibody AQ8 (antibody, V domains shown, Mouse hybridoma antibody, tested as culture supernatant in ELISA; also called AQ8 antibody) VH: EVNLVESGGGLVQPGGSMSLSCAASGFTFTDYYMSWVRQPPGKALEWLALIRNKANGYTTEYSASVKGRFTISRDNSQSILYLQMNALRAEDSATYYCARDSYYSYDGYAMDYWGQGTSVTVSS VL: DIQMTQSPASLAASVGETITITCQASENIYFSLAWYQQKQGKSPQLLIYNTDSLKDGVPSRFSGSGSGTQYSMKINSMQPEDTATYFCRQSYDFPWTFGGGTKLEIK | no binding | –
rat antibody AJ540 (antibody, V domains shown, Rat hybridoma antibody, tested as culture supernatant in ELISA; also called AJ540 antibody) VH: QIQLVQSGPELKKPGESVKISCKASGYTFTDYAMHWVKQVPGKGLKWMGWINTYTGKPTYADDFKGRFVFSLEASASTANLQISNLKNEDTANVFCAREGGGYYWYFDFWGPGTMVTVSS VL: DIVMTQSPTSMSISVGDRVTMNCKANQNVDFNVDWYQQKTGQSPKLLIYKASNRYTGVPDRFTGSGSGTDFTFTISNMQAEDLAVYYCMQSNSFPLTFGSGTNLEIK | – | no binding
